According to EP4778941A1 (Jiangsu Hengrui Pharmaceuticals Co., Ltd., dated 2025):
Like-named read-outs stand apart in the source and are kept apart here.

What was measured:
[1] = target: T1, His-tagged human MET antigen (human, UniProt P08581 25-932); experiment: SPR, Biacore 8K; antibody captured, His-tagged human MET antigen 6.25-400 nM as analyte; 1:1 Langmuir
T1 construct: Soluble antigen used as analyte in SPR; not shown: His tag

[2] = target: T2, Human MET protein on the cell surface (human, UniProt P08581 25-1390); experiment: cell-based or functional assay
[3] = target: Human HER3 and MET proteins together on HER3/MET double-positive cells (human, UniProt P21860 20-1342; P08581 25-1390); experiment: cell-based or functional assay
[4] = target: T2, Human MET protein on the cell surface; experiment: FACS on NCI-H1975 cells (MET single-positive), FIG. 3
[5] = target: T3, His-tagged human HER3 antigen (human, UniProt P21860 20-643); experiment: SPR, Biacore 8K, protein A chip; ADC captured, His-tagged antigen 6.25-400 nM as analyte; 1:1 Langmuir
T3 construct: Soluble antigen used as analyte in SPR; not shown: His tag

[6] = target: T3, His-tagged human HER3 antigen; experiment: as above; remark: listed apart in the source
[7] = target: T1, His-tagged human MET antigen; experiment: as above
[8] = target: T4, Human HER3 protein on the cell surface (human, UniProt P21860 20-1342); experiment: FACS on MDA-MB-453 cells (HER3 single-positive)
T4 construct: whole, on cells; also called HER3 single-positive cells (MDA-MB-453)

[9] = target: T4, Human HER3 protein on the cell surface; experiment: cell-based or functional assay

T1 sequence (P08581 25-932 limits assumed): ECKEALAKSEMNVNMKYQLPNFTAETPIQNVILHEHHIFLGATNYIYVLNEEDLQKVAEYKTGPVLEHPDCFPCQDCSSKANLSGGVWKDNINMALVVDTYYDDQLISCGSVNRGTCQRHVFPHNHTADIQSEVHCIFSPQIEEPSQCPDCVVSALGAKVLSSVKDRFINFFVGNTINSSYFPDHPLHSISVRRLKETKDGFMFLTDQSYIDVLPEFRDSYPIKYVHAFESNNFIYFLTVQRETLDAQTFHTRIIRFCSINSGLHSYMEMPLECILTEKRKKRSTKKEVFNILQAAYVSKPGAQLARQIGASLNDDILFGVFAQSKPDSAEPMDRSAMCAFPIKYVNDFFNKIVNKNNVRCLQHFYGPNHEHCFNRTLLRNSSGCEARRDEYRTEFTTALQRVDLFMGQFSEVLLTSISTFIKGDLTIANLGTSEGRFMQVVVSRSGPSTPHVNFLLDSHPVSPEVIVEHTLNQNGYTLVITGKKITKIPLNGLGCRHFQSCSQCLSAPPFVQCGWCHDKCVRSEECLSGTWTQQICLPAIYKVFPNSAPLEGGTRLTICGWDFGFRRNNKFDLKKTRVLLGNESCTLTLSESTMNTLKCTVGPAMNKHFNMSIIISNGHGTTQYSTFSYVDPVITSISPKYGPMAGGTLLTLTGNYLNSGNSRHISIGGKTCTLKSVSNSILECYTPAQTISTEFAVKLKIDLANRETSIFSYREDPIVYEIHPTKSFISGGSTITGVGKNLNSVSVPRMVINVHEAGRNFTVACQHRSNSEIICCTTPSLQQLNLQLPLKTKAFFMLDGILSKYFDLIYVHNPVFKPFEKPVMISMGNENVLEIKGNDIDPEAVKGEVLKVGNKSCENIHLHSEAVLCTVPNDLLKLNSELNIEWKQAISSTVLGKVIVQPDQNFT
T2 sequence (P08581 25-1390): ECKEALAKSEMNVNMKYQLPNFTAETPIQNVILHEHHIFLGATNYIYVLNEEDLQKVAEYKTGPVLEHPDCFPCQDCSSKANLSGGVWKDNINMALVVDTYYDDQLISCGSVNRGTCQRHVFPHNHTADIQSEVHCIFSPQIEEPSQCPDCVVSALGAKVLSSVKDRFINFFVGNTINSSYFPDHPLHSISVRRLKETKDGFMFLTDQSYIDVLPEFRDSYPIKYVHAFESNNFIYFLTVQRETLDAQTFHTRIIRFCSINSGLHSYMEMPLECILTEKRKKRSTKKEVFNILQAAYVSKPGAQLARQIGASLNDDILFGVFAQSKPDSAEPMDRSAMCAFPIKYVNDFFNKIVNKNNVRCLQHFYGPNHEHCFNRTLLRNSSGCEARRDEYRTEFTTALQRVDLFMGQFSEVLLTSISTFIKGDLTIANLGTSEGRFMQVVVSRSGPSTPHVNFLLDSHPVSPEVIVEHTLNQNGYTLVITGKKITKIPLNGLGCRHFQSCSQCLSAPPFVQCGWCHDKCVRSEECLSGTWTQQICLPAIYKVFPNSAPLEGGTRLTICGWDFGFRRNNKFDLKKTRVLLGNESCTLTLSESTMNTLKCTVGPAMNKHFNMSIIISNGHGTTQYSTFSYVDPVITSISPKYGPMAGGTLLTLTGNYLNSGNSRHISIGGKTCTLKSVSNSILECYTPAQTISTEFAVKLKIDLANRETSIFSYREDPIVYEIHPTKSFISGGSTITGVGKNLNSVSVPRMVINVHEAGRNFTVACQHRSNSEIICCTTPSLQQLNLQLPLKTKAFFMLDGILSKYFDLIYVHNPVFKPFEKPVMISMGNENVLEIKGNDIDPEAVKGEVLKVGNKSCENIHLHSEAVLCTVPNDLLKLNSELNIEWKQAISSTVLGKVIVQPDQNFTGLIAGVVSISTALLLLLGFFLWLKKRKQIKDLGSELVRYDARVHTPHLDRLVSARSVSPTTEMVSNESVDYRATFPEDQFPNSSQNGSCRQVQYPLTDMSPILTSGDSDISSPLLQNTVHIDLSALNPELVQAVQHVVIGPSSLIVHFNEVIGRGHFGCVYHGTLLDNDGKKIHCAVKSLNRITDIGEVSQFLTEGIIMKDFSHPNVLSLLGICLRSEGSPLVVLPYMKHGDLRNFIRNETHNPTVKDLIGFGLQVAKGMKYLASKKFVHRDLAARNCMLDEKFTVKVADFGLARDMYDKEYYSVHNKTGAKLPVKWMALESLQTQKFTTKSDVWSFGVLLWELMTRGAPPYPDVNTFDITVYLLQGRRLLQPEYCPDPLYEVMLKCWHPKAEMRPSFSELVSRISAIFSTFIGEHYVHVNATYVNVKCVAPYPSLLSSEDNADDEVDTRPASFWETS

B1: Anti-MET antibody A13 (antibody, human IgG1, kappa, V domains shown)
VH: QVQLVQSGAEVKKPGASVKVSCEASGYTFTSYGFSWVRQAPGQGLEWMGWISASNGNTYYAQKLQGRVTMTTDTSTSSAYMELRSLRSDDTAVYYCARVYADYADYWGQGTLVTVSS
VL: DIQMTQSPSSVSASVGDRVTITCRASQGINTWLAWYQQKPGKAPKLLIYAASSLKSGVPSRFSGSGSGADFTLTISSLQPEDFATYYCQQANSFPLTFGGGTKVEIKR
[1]
  Kd: 6.55 nM
  koff: 0.000614 s⁻¹
  kon: 93800 M⁻¹ s⁻¹
[2]
  Endocytosis ratio at 0 h (FACS): 0%
  Endocytosis ratio at 0.5 h (FACS): 25.7%
  Endocytosis ratio at 2 h (FACS): 45.7%
  Endocytosis ratio at 6 h (FACS): 57.6%

B2: Anti-HER3/MET bispecific antibody P3-A (bispecific antibody, human IgG1, kappa)
heavy 1: not shown
light 1: QAVLTQPSSVSGAPGQRVTISCTGSSSNIGAGYDVHWYQQLPGTAPKLLIYGNSNRPSGVPDRFSGSKSGTSASLAITGLQAEDEADYYCQSYDSSLSGVFGTGTQLTVLGGGGSGIPPKIECLPIDISIDEGKVLTVASAFTGEPTPEVTWSTGGRKIHSQEQGRFHIENTDDSTTLTIKDVQKQDGGLYTLTLRNEFGSDSATVNIHIRSI
heavy 2: QVQLVQSGGGLVQPGRSLRLSCAASGFTFDDYAMHWVRQAPGKGLEWVSGISWNSGSIGYADSVKGRFTISRDNAKNSLYLQMNSLRAEDTALYYCAKEGLPGLDYWGQGTLVTVSSASTKGPSVFPLAPSSKSTSGGTAALGCLVKDYFPEPVTVSWNSGALTSGVHTFPAVLQSSGLYSLSSVVTVPSSSLGTQTYICNVNHKPSNTKVDKKVEPKSCDKTHTCPPCPAPELLGGPSVFLFPPKPKDTLMISRTPEVTCVVVDVSHEDPEVKFNWYVDGVEVHNAKTKPREEQYNSTYRVVSVLTVLHQDWLNGKEYKCKVSNKALPAPIEKTISKAKGQPREPQVCTLPPSREEMTKNQVSLSCAVKGFYPSDIAVEWESNGQPENNYKTTPPVLDSDGSFFLVSKLTVDKSRWQQGNVFSCSVMHEALHNHYTQKSLSLSPGK
light 2: DIQMTQSPSSLSASIGDRATITCRASQHVGTYLNWYQQKPGKTPKLLISGAANLQSGVPSRFSGSGSGTDFTLTISSLQPEDFATYYCQQSYNTPPFSFGQGTKVEIKRTVAAPSVFIFPPSDEQLKSGTASVVCLLNNFYPREAKVQWKVDNALQSGNSQESVTEQDSKDSTYSLSSTLTLSKADYEKHKVYACEVTHQGLSSPVTKSFNRGEC
[3]
  Minimum cell viability (%): 16.4%
[4]
  binding result: binds

B3: Anti-HER3/MET antibody-drug conjugate ADC-2 (bispecific antibody, human IgG1, kappa)
heavy 1: not shown
light 1: DIVLTQSPDSLAVSLGERATINCRADKSVSTSTYNYLHWYQQKPGQPPKLLIYLASNLASGVPDRFSGSGSGTDFTLTISSLQAEDVAVYYCQHSRDLPPTFGQGTKLEIKGGGGSGIPPKIECLPIDISIDEGKVLTVASAFTGEPTPEVTWSTGGRKIHSQEQGRFHIENTDDSTTLTIKDVQKQDGGLYTLTLRNEFGSDSATVNIHIRSI
heavy 2: QVQLVQSGGGLVQPGRSLRLSCAASGFTFDDYAMHWVRQAPGKGLEWVSGISWNSGSIGYADSVKGRFTISRDNAKNSLYLQMNSLRAEDTALYYCAKEGLPGLDYWGQGTLVTVSSASTKGPSVFPLAPSSKSTSGGTAALGCLVKDYFPEPVTVSWNSGALTSGVHTFPAVLQSSGLYSLSSVVTVPSSSLGTQTYICNVNHKPSNTKVDKKVEPKSCDKTHTCPPCPAPELLGGPSVFLFPPKPKDTLMISRTPEVTCVVVDVSHEDPEVKFNWYVDGVEVHNAKTKPREEQYNSTYRVVSVLTVLHQDWLNGKEYKCKVSNKALPAPIEKTISKAKGQPREPQVCTLPPSREEMTKNQVSLSCAVKGFYPSDIAVEWESNGQPENNYKTTPPVLDSDGSFFLVSKLTVDKSRWQQGNVFSCSVMHEALHNHYTQKSLSLSPGK
light 2: DIQMTQSPSSLSASIGDRATITCRASQHVGTYLNWYQQKPGKTPKLLISGAANLQSGVPSRFSGSGSGTDFTLTISSLQPEDFATYYCQQSYNTPPFSFGQGTKVEIKRTVAAPSVFIFPPSDEQLKSGTASVVCLLNNFYPREAKVQWKVDNALQSGNSQESVTEQDSKDSTYSLSSTLTLSKADYEKHKVYACEVTHQGLSSPVTKSFNRGEC
modifications: compound 9-A on reduced cysteines, positions not given; compound 9-A (exatecan derivative linker-drug) on reduced cysteines, positions not given; target DAR 6 for the whole molecule
notes: target DAR 6; distribution of the drug over the chains not reported for ADC-2
[5]
  Kd: 19.7 nM
  koff: 0.0108 s⁻¹
  kon: 546000 M⁻¹ s⁻¹

B4: Anti-HER3/MET bispecific antibody A9-A (bispecific antibody, human IgG1, kappa)
heavy 1: not shown
light 1: EIVLTQSPGTLSLSPGERATLSCRASQSVSNNYLAWYQQKPGQAPRLLIFGASSRATGIPDRFSGSGSGTDFTLTISRLEPEDFAVYYCQQYDISPMYSFGQGTKLEMKGGGGSGIPPKIECLPIDISIDEGKVLTVASAFTGEPTPEVTWSTGGRKIHSQEQGRFHIENTDDSTTLTIKDVQKQDGGLYTLTLRNEFGSDSATVNIHIRSI
heavy 2: QVQLVQSGGGLVQPGRSLRLSCAASGFTFDDYAMHWVRQAPGKGLEWVSGISWNSGSIGYADSVKGRFTISRDNAKNSLYLQMNSLRAEDTALYYCAKEGLPGLDYWGQGTLVTVSSASTKGPSVFPLAPSSKSTSGGTAALGCLVKDYFPEPVTVSWNSGALTSGVHTFPAVLQSSGLYSLSSVVTVPSSSLGTQTYICNVNHKPSNTKVDKKVEPKSCDKTHTCPPCPAPELLGGPSVFLFPPKPKDTLMISRTPEVTCVVVDVSHEDPEVKFNWYVDGVEVHNAKTKPREEQYNSTYRVVSVLTVLHQDWLNGKEYKCKVSNKALPAPIEKTISKAKGQPREPQVCTLPPSREEMTKNQVSLSCAVKGFYPSDIAVEWESNGQPENNYKTTPPVLDSDGSFFLVSKLTVDKSRWQQGNVFSCSVMHEALHNHYTQKSLSLSPGK
light 2: DIQMTQSPSSLSASIGDRATITCRASQHVGTYLNWYQQKPGKTPKLLISGAANLQSGVPSRFSGSGSGTDFTLTISSLQPEDFATYYCQQSYNTPPFSFGQGTKVEIKRTVAAPSVFIFPPSDEQLKSGTASVVCLLNNFYPREAKVQWKVDNALQSGNSQESVTEQDSKDSTYSLSSTLTLSKADYEKHKVYACEVTHQGLSSPVTKSFNRGEC
[3]
  Minimum cell viability (%): 15.9%
[4]
  binding result: binds

B5: Anti-HER3/MET bispecific antibody 5D5-A (bispecific antibody, human IgG1, kappa)
heavy 1: not shown
light 1: DIQMTQSPSSLSASVGDRVTITCKSSQSLLYTSSQKNYLAWYQQKPGKAPKLLIYWASTRESGVPSRFSGSGSGTDFTLTISSLQPEDFATYYCQQYYAYPWTFGQGTKVEIKGGGGSGIPPKIECLPIDISIDEGKVLTVASAFTGEPTPEVTWSTGGRKIHSQEQGRFHIENTDDSTTLTIKDVQKQDGGLYTLTLRNEFGSDSATVNIHIRSI
heavy 2: QVQLVQSGGGLVQPGRSLRLSCAASGFTFDDYAMHWVRQAPGKGLEWVSGISWNSGSIGYADSVKGRFTISRDNAKNSLYLQMNSLRAEDTALYYCAKEGLPGLDYWGQGTLVTVSSASTKGPSVFPLAPSSKSTSGGTAALGCLVKDYFPEPVTVSWNSGALTSGVHTFPAVLQSSGLYSLSSVVTVPSSSLGTQTYICNVNHKPSNTKVDKKVEPKSCDKTHTCPPCPAPELLGGPSVFLFPPKPKDTLMISRTPEVTCVVVDVSHEDPEVKFNWYVDGVEVHNAKTKPREEQYNSTYRVVSVLTVLHQDWLNGKEYKCKVSNKALPAPIEKTISKAKGQPREPQVCTLPPSREEMTKNQVSLSCAVKGFYPSDIAVEWESNGQPENNYKTTPPVLDSDGSFFLVSKLTVDKSRWQQGNVFSCSVMHEALHNHYTQKSLSLSPGK
light 2: DIQMTQSPSSLSASIGDRATITCRASQHVGTYLNWYQQKPGKTPKLLISGAANLQSGVPSRFSGSGSGTDFTLTISSLQPEDFATYYCQQSYNTPPFSFGQGTKVEIKRTVAAPSVFIFPPSDEQLKSGTASVVCLLNNFYPREAKVQWKVDNALQSGNSQESVTEQDSKDSTYSLSSTLTLSKADYEKHKVYACEVTHQGLSSPVTKSFNRGEC
[3]
  Minimum cell viability (%): 20.5%
[4]
  binding result: binds

B6: Anti-HER3/MET antibody-drug conjugate ADC-5 (bispecific antibody, human IgG1, kappa)
heavy 1: not shown
light 1: DIQMTQSPSSVSASVGDRVTITCRASQGISTWLAWYQQKPGKAPKLLIYAASSLKSGVPSRFSGSGSGTDFTLTISSLQPEDFATYYCQQANSFPLTFGGGTKVEIKGGGGSGIPPKIECLPIDISIDEGKVLTVASAFTGEPTPEVTWSTGGRKIHSQEQGRFHIENTDDSTTLTIKDVQKQDGGLYTLTLRNEFGSDSATVNIHIRSI
heavy 2: QVQLVQSGGGLVQPGRSLRLSCAASGFTFDDYAMHWVRQAPGKGLEWVSGISWNSGSIGYADSVKGRFTISRDNAKNSLYLQMNSLRAEDTALYYCAKEGLPGLDYWGQGTLVTVSSASTKGPSVFPLAPSSKSTSGGTAALGCLVKDYFPEPVTVSWNSGALTSGVHTFPAVLQSSGLYSLSSVVTVPSSSLGTQTYICNVNHKPSNTKVDKKVEPKSCDKTHTCPPCPAPELLGGPSVFLFPPKPKDTLMISRTPEVTCVVVDVSHEDPEVKFNWYVDGVEVHNAKTKPREEQYNSTYRVVSVLTVLHQDWLNGKEYKCKVSNKALPAPIEKTISKAKGQPREPQVCTLPPSREEMTKNQVSLSCAVKGFYPSDIAVEWESNGQPENNYKTTPPVLDSDGSFFLVSKLTVDKSRWQQGNVFSCSVMHEALHNHYTQKSLSLSPGK
light 2: DIQMTQSPSSLSASIGDRATITCRASQHVGTYLNWYQQKPGKTPKLLISGAANLQSGVPSRFSGSGSGTDFTLTISSLQPEDFATYYCQQSYNVPPFSFGQGTKVEIKRTVAAPSVFIFPPSDEQLKSGTASVVCLLNNFYPREAKVQWKVDNALQSGNSQESVTEQDSKDSTYSLSSTLTLSKADYEKHKVYACEVTHQGLSSPVTKSFNRGEC
modifications: compound 9-A on reduced cysteines, positions not given; compound 9-A (exatecan derivative linker-drug) on reduced cysteines, positions not given; average DAR 5.87 for the whole molecule
[6]
  Kd: 14.3 nM
  koff: 0.00721 s⁻¹
  kon: 505000 M⁻¹ s⁻¹
[7]
  Kd: 13.1 nM
  koff: 0.000872 s⁻¹
  kon: 66500 M⁻¹ s⁻¹

B7: Anti-MET antibody S3 (antibody, human IgG2, kappa, V domains shown)
VH: QVQLVESGGGVVQPGRSLRLSCAASGFSLSNYGVHWVRQAPGKGLEWLAVIWSGGSTNYAAAFVSRLTISKDNSKNTVYLQMNSLRAEDTAVYYCARNHDNPYNYAMDYWGQGTTVTVSS
VL: DIVLTQSPDSLAVSLGERATINCRADKSVSTSTYNYLHWYQQKPGQPPKLLIYLASNLASGVPDRFSGSGSGTDFTLTISSLQAEDVAVYYCQHSRDLPPTFGQGTKLEIKR
[8]
  Maximum fluorescence value: 77
[9]
  Minimum cell viability (%): 97.3%
